# Experimental data: the DeepSol protein solubility set
# Test: soluble on expression in E. coli; label from the status in PepcDB or PDB records
row,Sequence,soluble on expression in E. coli
1,MSLEKAPHLTILVSIDGFRADYLDRGDTPVMKALAENGARAAMRPSFPSVTFPNHYTLITGKRPDRNGIVANTMVDPSVSAEKFTMRSLDPAWWSQAKPFWVSVEQQGKRAAAMFWPGSEVEIDGVRPSRWVKFDQTMPGDARVDQVLNWLDSADGPPIAFSTLYFDIVDTQGHHYGPESPEVRAAAASVDAALGRLVAGLKARGRFESTDIVIVADHGMAPLPAANRVVLDDLVDVSKIRLVTTGAVTAFSPMPGERKAVEAAFLSKPLPHMTCWKKNRIPARFHYGRNSRVPAIVCLSETGWYTTTEAAKQKPSEWDGKDGGAHGFDPYDPTMQAVFVAHGPSFKSGVALPAFDNVDVYALLAKVTGVRPEKTDGSLKVVREEGHHHHHH,not soluble
2,MSLEKLSHGLVTSRNMIRYKSSQLPERVLQFGEGNFLRGFIDWMIQQMNKQNVFNGRVVAIQPTPHGKVVPKLQEQDSLYTVWLRGIADGETVDHHEVITSISRGLNPYTNWQDVLEVAASPDISVVFSNTTEAGLTYLEEGYDKEKAPLSFPGKLAACLWHRYETLGWGEGSGLVIIPCELVEQNGKVLKELVCRYAKAWNFPQEFFTWLERENEFCHTLVDRIVPGFPSDTADECFERLGYEDILLTVAEPYHLFIIEGSERVRKLLPFNEAGLHVRWNHLEKHRNMKVRVLNGTHTFMFALSYLSGVDTVGEAMADEQLCSFIRKGLFEEIIPCVDAPEQEVTAFAETVLERFENPFLQHRLTDIGLNAVNKFRTRLMPTFNDYVAQTGEAPTYLLFSLAALINYYRGVEEDGPFLIGRRREDSYLIRDDLEVIEAFKVGWQQVNTGKLSLAQLCEDLLSKRELWGVDLSMERKVVDKVAESLQIIVEKGMRQAISGVLNQIGGNNHVHKEGHHHHHH,soluble
3,MSLEKWRIYEELTNAVREFESINPVRLIPEVGTNFVYSLPLPYARSTKDVAGVKGRIVKYGNSVKAVGPVEFGASDHLARAVLTYMRFYPEYRSAINIRYSREIIEEIIEIAQERGFKVSFYDRREEPEEIKAKEGATIPWGIETAIKRIKERPDIIYHLGDVGKEPMILVFGRNPREVLEKIKMLIEGHHHHHH,soluble
4,MSLELKKFFVLVLLLGSVCPAFCGGDTLHCRFYFPVGSAIPDLSYRDNGPRLDSFLSSIRSLQERAVLRRVRLRSGASPEGNSMLNRRLSDERLVSLRAVMRERLSVPDSVLVCLSSGEDWEGLSVLVGESDMPCRDEVLRILRDTPVWVVRGGKVVDSRKRQLMNLRGGSVWRYMAEHFFPELRNCTVVECEFGPVISGNDREIAVYQKEAEARDTVILRDTVERTVVIRDTVQVPASVGNALKPFYMGLKTNLLYDALLVPNLGVEFYLGRGWSFGGNWMYAWWKSDRHHNYWRIYGGELALRKYFGRRAAEKPLAGHHLGLYGQLFTYDFEVGGTGYMGGRPGGTLWEKMNYAVGLEYGYSLPIARRLNLDFVIGVGYWGGEYHKYDPVDGCYVWKETLQRHWFGPTKAEVSLVWLLGRGNHNEKGGKEGHHHHHH,not soluble
5,MSLELLSKLETKIQATLETIELLKMELEEEKQKTSTLSEQNNQLIEQNQQLQQELTSWNEKVTGLVGLLNSEI,soluble
6,MSLELVSLLMQDCQSTGDIQSKLKRLFAGTIEQMLEAEMEDHLGYEKNSIEGNNSGNSRNGYNRKTIISDYGASEIAVPRDRNGEFEPKILEKRQTRTDEIEQKILSMYSKGMSQRDIEDTLREIYGAEIPQTLISKITDKILPEVNEWQNRPLESVYPIIYFDGIVFKSRKDSQIINKCVYSVLGIDMNGHKDILGIWLSENESASFYASICSDLKKRGIQDIFIACHDNLKGLGEAINAVFPKTKQQLCIVHQIRNSTKFVQYKDRKAICADLKKIYGAVNLDDAEYAKEEFREKWDKKYPSILRSWDANWAELTTFFNYPEQIRHLIYTTNAVEAYHRMVRKFTKTKSIFPTDDSIRKVVFLSSREITKKWTQPSRGWPMAYSQIMIFFADRFIAEGHHHHHH,soluble
7,MSLENDFPLKGKTVLVTRNKAQAASFQQKVEALGGKAVLTSLITFRRALPNDVAEQVREDLAAPGWLVFTSVNGADFFFSYLKENQLILPAHKKIAAVGEKTARRLKMHNVSVDVMPQEYIAEQLADALKQHAEPGETITVMKGNLSRDVIKQELVPLGFEVKEWVLYETIPDEEGIEALKDAAGQYSFDYVTFTSSSTVHTFMHVLGEELKKWKANGTACISIGPLTNDALLTYGITSHTPDTFTIDGMLELMCSMSREEERIEGHHHHHH,soluble
8,MSLENYWVDERTLVVSGDFFGVSTGLLGGWKRVRHAFNHTVSEEFHSMEPAEYLRKVARGYGLKSYFGLLTSVPIEKLSVKGCGEVTVFATAGVMNPNERVGTINIIAVFECRMSRAAMLNAIITATEAKTKALLEEGHNFTGTNTDAVVVLCTQKGGYHRYCGPASEVGQKLWRCAGEAVKDSLARWEGHHHHHH,not soluble
9,MSLEPCWKVGFAETSGCLPKLCIAQLRLPAFCNSEGLFGLFDGETGNGVPNLLVKAIPKILLEERTVKETANDYMKYTLLSAHRELKQRGQQEAVNVTLCHIARSRLPTEAMSYLPQTVASGRKFILRVATVGESSAVLIKHNRCVLLNKGSPARKLGLSANFPVTVPDPEVQEVVLTDADEYLVLGNRKLWEVITMETVAEEIRKEENILLAAKRVQDIAQSYGAEENLSVMIVRFNEGHHHHHH,soluble
10,MSLEQASVTNDFSENKQGCIQHPWQGKKVGYIGDSITDPNCYGDNIKKYWDFLKEWLGITPFVYGISGRQWDDVPRQAEKLKKEHGGEVDAILVFMGTNDYNSSVPIGEWFTEQEEQVLSAHGEMKKMVTRKKRTPVMTQDTYRGRINIGITQLKKLFPDKQIVLLTPLHRSLANFGDKNVQPDESYQNGCGEYIDAYVQAIKEAGNIWGIPVIDFNAVTGMNPMVEEQLIYFYDAGYDRLHPDTKGQERMARTLMYQLLALPVAFEGHHHHHH,soluble
11,MSLEQLLTNYSIETQTKSCEDFAFRIGFNDIKYMGGVSESAKDGNRKIYNEMLRYAMDKRNNIQAIIVYSMDRFSRHLASAAPDIEKLNKKNIILYSVQEQISSNDDMGIHFMNFKLSSSQFENRLRSSRARDGVRNRILMGKYPFATPPIGYNKDSDKNLVINEDGELLRKAFKMLLDGYSMMHIMKVMSRYGIIKPVNRWGEIFRNPIYAGLIVSKTNDNKPIKGIHQPIVSEKDFYKLQGIFEFKSKPRLKETDTIDIFPLKTLLQCPNGHGRLTGDIKKTKKNQPAYYKCNKCSFTASAQKANNAFLNLLSVVEFNQVFKDEFKEILDAVFENTFQEMTVKKNKLAREISIKETQLTNLFDAKFAEKINENKFEILSAKYTQSLEDMQKQLVFVTAELPEKKTFIEDCLIDLNNFEKLWDVAEYMDKQQIFNTIFKEKPSIVNNNHKIGLSNISLNPAFRSNLVELVHRKAIITGNYEGHHHHHH,not soluble
12,MSLERSLSVTILFQDVPVSVWEINKNTPQPDWVKNCFENNTMVWYDNRLKILVKAINPSPKRDVKLGLRDTMLGYYGGGFVMGNIGDYFDATNGRVLSKKKFYKQYVINEEGHHHHHH,not soluble
13,MSLETFLCGKESCNKGYIRHPWYGKKVGYIGDSITDPNCYGDNIKKYWDFLKEWLDITPYVYGVSGRQWNDVPRQAEQLKKEHGEEVDAIVVLMGTNDFNSSVPVGTWFAEKEEQVMAARGETKKLETRKRRVPIMTNDTYKGRINIGLSHLKKLFPDKQIVLLTPLHRSLAEFGEKNVQPDESYQNKCGEYVDAYVQAIKEAGNLWGVPVIDFNSVTGMNPMIEEQLIYFYDSGYDRLHPNTNGQERMAHTLMYQLLSLPASFEGHHHHHH,soluble
14,MSLETSTQCTSAVAHTSGRRNYNEDRICVATNIEGADLFAVFDGHNGHEAATLCRNKLKQVYGSCHGNINDTFQSLNDIVSKETTAGCTATIVAVKQNSIEVGNCGDSPAYVIRKDKSIEKITYDHKATDPKEEEMIVKNGGVVMNLFGTKRVNGQIMVTRSIGDRSLHPPMTSIPTTKIISKEDIISICVMSDGVTDALTDLEIHDIMTNGQPIEIRAQTIRNQAYKEGSKDNICVVVVDLEGHHHHHH,soluble
15,MSLFGTSTTAPAASTTPLFGSTAAAAPKPGGLFGAPAAAMSSGLFGASQTAPAPASAGLFGSTTAPTPASTSSVPLFGSTTTTASPSGGLFGAKTATTAAPAPTGGLFGASTAAPATGSLFGSTAPATGGLFGAKSTTSAAPTLGGGLFGSSTAPAAAATTSFGAPPATAAAPLGLGGIQQQNSSGGGLPNASGTATSSLTGTGDSKDASKDGEWTQAATLIRDLLPLIEDKFKKNREFMEETENMSIDNVAIEEQIDKTRGWIEEVRRDVLTATQSSERIAYLVSTDKTLCDTTKRVQEHSGSANQTTYMNAIKEHLAELCNFYGNDMDALQERVNFLRNRFEKLLTGEKSITMEELDAYFLRCDANVSNAHHHVTELGKEIEEIRDFLIEQGYTQLRKWSTTAASAAAPIASNSEMIVREGAEFFPSQSSLAIIGSSLRAPAAPAPAVGGLGLGTGTSLFGNTGTTSLFGSTATKPAFSGGSLFGATTSTATSSAAATTTTPTTSLFGSTKPATTTTPFASTVANNSSGLLFSSKK,not soluble
16,MSLFINKEAELQWVREYARRSHATPFVIYGPEGCGKTALALEAVRRFSSWYAGGIALYIDGKARRAAEAVKSNVNIGDVLAEVGGLAGSVGRSAARLAVWLLGKIVEKIAERFAPMNILVVDELFSAVGVSEGALAVKYAKELGDRVLRSKKAELGEIPKPLAEASVSYLIFSSEGSSRRELSRHNWAHIALMWNMGERGFQQLGEILGAPDFSAAWRLCGGQPPLPFPISRAGLGRGKIPNSNREGHHHHHH,soluble
17,MSLGDEWARIRKDGALLIGLEGTFPPYSQLAGGQLQGFEVDFGRALAAQMGVTARFQTMVWDHMLDSLAAGRLDAVINQVVATPARGKRFDFSIPYTYSGLQLVVRKPDLTRFRGARDLAGAHVGVSAGTNYEQWLRDNAPQAHIHLYQDDPTKFDGLRRGEVDAIVINRLAAFNLALKSQGELVPTGRVLAREDACVVLRKGNPRLLAEVNRAIGHLQRDGTLQALSRKWFKADIVSEGHHHHHH,soluble
18,MSLGETAWCRHPLAYLVEAADDICYALLDLEDGLEMGILRFDEVAEILIQIAGGAPEGYDGMRARGVSQRRRIATLRGAAMERAVNDVAAVFVAHESALLGGTLSEDLLELCHPDLGWGVGTAKRIARERIFQNERKAKLEIGAYTTLGILLEAFIGAAHELHYSGQSSFKHQRVLALIGENTPKSSWSLYASYRRMLDFIGGMTDHYAVDLAQEMGGRLEGHHHHHH,not soluble
19,MSLGFIEEIKSALGNYVITEKKDLIPYMNDASYFTGEMPEAVVLPGSAEDVQTIMRLAYKYEKPVVVKGGGSSLTGSSILKESGIVMSMLRMNRILDINLNDKCVTVEPGLRLNDLQLYLDKYGHFYPPDPASSMAATVGGSISTNAGGLRGVAYGVTKDWILGLDVVLADGTMVKFGNKTLKRTLGYDLTSLMIGSEGTLGVITKAYLKIWPKPQKVARLVAFYQDIESAGRAVNELKVSTIPEMAEFLDKISLDSVPEAITYPPGTKYALIIDVSGPPELLGKKKTETEELLKRYAISTKSTTDPAEMEKIYRARKGLYASILKLRKSEKEYIVIGDIVVPVSELPTSLKEIEKKRDEDGVRAAIFGHIGDGNIHANIFADLGDNSAMDKVNRFMMDLAMVAVKHGGSVSAEHGIGIEKKQLLIEEMKYNNNLRTLDIMKAIKQVFDPKNILNRGNIFEEGHHHHHH,soluble
20,MSLGHIIVTGAGSGLGRALTIGLVERGHQVSMMGRRYQRLQQQELLLGNAVIGIVADLAHHEDVDVAFAAAVEWGGLPELVLHCAGTGEFGPVGVYTAEQIRRVMESNLVSTILVAQQTVRLIGERGGVLANVLSSAAQVGKANESLYCASKWGMRGFLESLRAELKDSPLRLVNLYPSGIRSEFWDNTDHVDPSGFMTPEDAAAYMLDALEARSSCHVTDLFIGRNEGHHHHHH,soluble
